Reference: publication PMC12182893, “Dimeric DNA Aptamers for the Spike Protein of SARS‐CoV‐2 Derived from a Structured Library with Dual Random Domains”
Read-outs that look alike come from different tables or passages of the source.

Legend:
alpha-thrombin [1] = target: alpha-thrombin (human, UniProt P00734;P00734 328-363;364-622); test: dot blot (filter binding)
HKU1 RBD = HKU1 RBD (seasonal coronavirus HKU1, UniProt Q5MQD0 325-607); test: dot blot (filter binding); 10 nM protein; conditions: protein: recombinant; label: radiolabel (32P); 3-way junction, predicted
NL63 RBD = NL63 RBD (seasonal coronavirus NL63, UniProt Q6Q1S2 481-616); test: dot blot (filter binding); 10 nM protein; conditions: protein: recombinant; label: radiolabel (32P); 3-way junction, predicted
OC43 RBD = OC43 RBD (seasonal coronavirus OC43, UniProt P36334 333-607); test: dot blot (filter binding); 10 nM protein; conditions: protein: recombinant; label: radiolabel (32P); 3-way junction, predicted
229E RBD = 229E RBD (seasonal coronavirus 229E, UniProt P15423 293-435); test: dot blot (filter binding); 10 nM protein; conditions: protein: recombinant; label: radiolabel (32P); 3-way junction, predicted
SARS-CoV-1 spike protein = SARS-CoV-1 spike protein (SARS-CoV-1, UniProt P59594 14-1195); test: dot blot (filter binding); conditions: protein: recombinant; chain copies: 3; label: radiolabel (32P)
[2] = target: Influenza hemagglutinin (HA) (influenza A/California/04/2009 (CAL 09), UniProt C3W5S1 18-530); test: dot blot (filter binding); conditions: protein: recombinant; chain copies: 3; label: radiolabel (32P)
alpha-thrombin [3] = target: alpha-thrombin (human, UniProt P00734;P00734 328-363;364-622); conditions: protein: commercial; copies: 1;1; label: radiolabel (32P); 3-way junction, predicted

Measured: binding result

B1: DRDA10 (structured_DNA)
DNA: TTACGTCAAGGTGTCACTCCTGTGGGTGGAATGGGGAAGGGAGTGTTTTTTTTTTCGGAGATGTGTGTGTGAAACAGTGGGAAGCATCTCTTTGGCGTG
no binding: alpha-thrombin [1]

B2: DRDA8 (structured_DNA)
DNA: TTACGTCAAGGTGTCACTCCTGTGGGTGGAATGGGGAAGGGAGTGTTTTTTTTTGTGAGATGTGTGGTGTGGAATGGGGAAGCATCTCTTTGGCGTG
not listed: alpha-thrombin [1]
no binding: all other assays above
